Data as given in publication PMC10914790.

How the values were obtained:
Test in all cases: MST; Clr4 constructs fluorescently labelled (BLUE-NHS), H3KC9me3 nucleosomes added at 8 nM to 2.5 μM; 10 mM Tris–HCl pH 7.5, 150 mM NaCl, 0.5 mM DTT, 0.05% Tween-20; 40% MST power, 80% LED; five runs
[1] = biological target: Clr4 chromodomain construct (S. pombe) (UniProt O60016)
[2] = biological target: Clr4 CD-deleted construct (S. pombe)
[3] = biological target: full-length Clr4 (Cryptic loci regulator protein 4), H3K9 methyltransferase (S. pombe) (UniProt O60016)

Kd [1]: 310 nM
Kd [2]: 422 nM
Kd [3]: 541 nM
Substance: H3KC9me3 nucleosome (H3K9 trimethyl-lysine analog nucleosome) (complex)
